From the nanobody polyreactivity screen of Harvey et al. (2022)

Test: yeast display, Sf9 membrane polyspecificity reagent, FACS + sequencing; frameworks hold sequencing errors
In short: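 Nanobodies came from a synthetic yeast display library in Saccharomyces cerevisiae BJ5465, induced with galactose for 36–48 hours and stained for 1 hour at 4 °C with 10% biotinylated, detergent-solubilized Sf9 membrane reagent. Cells were enriched on streptavidin microbeads and then FACS-sorted, with low and high (top ~1%) gates set on anti-HA fluorescence for expression and streptavidin fluorescence for reagent binding. Each polyreactivity label reflects the gate a clone came from. Genes were amplified by colony PCR, sequenced by MiSeq 2 × 250 and filtered by CDR length.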

Row | Sequence | polyreactivity (PSR sort gate)
1 | QVQLVESGGGLVHAGGSLRLSCAASGSIYVDNAMGWYRQAPGTERELVAVISWIGSSTYYADSVKGRFTISRDNAKYTVYFQMNSLNPEDTAVFYCAAAPSRTLLRQSKYYFWGQGTQVNVSS | low polyreactivity
2 | QVQRVESGGGLFQAGGSLRLSCAASGITFRYYNMGWYRQAPGKERELVAAISSSGGSTYYADSVKGRFTISRDNAKNTVYLQMNSLKPEDTAVYYCAAESKYSTSSPRRDYWGQGTQVTVSS | high polyreactivity
3 | QVHLVESGGGLVQAGGSLRLSCAASGFTFYYYAMGWYRQAPGKEREFVAAITRGGGSTYYADSVKGRFTISRDKAKNSVYLQMNSLKPEDTAVYYCAADPQSTIRDYWGQGTQVTVSS | high polyreactivity
4 | QVQLVESGGGLVQAGGSLRLSCAASGSIFEIYDMGWYRQAPGKERELVASIRTSGGSTYYADSVKGRFTISRDNAKNTVYLQMNSLKPEDTAVYYCATGWSWYHPDYDYWGQGTQVTVSS | low polyreactivity
5 | QVQLVESGGGLVQAGGSLRLSCAASGRTIWRYGMGWYRQAPGKERELVAAITDSGDSTYYADSVKGRFTISRDNAKNTVYLQMNSLKPEDTAVYYCAASDVVFALNGYYPGEDDYWGQGTQVTVSS | low polyreactivity
6 | QVQLVESGGGLVQAGGSLRLSCAASGFTFYPYALGRYRQAPRKEREFVAAISNGDSTHYADSVKGRFTISRDNAKNTVYLQMNSLKPEDTAVYYCNAYTRYPFYFVTSKYDYWGQGTQVTVSS | low polyreactivity
7 | QVQLVESGGGLVHAGGSLRLSCDASGLTFAYYAMGWYRQAPGKERELVAAISWNGGRTYYADSVKGRFTISRDNAKNTVYLQMNSLKPEDTAVYYCAAQVTSSFYWGQGTQVTVSS | high polyreactivity
8 | QVQLVESGGGLVQAGGSLRLSCATSGYTFTRYAMGWYRQAPGKERELVASISKTGGITYYADSVKGRFTISRDNAKNTVYLQMNSLKPEDTAVYYCNAVSKRRWAKYDYWGQGTQVTVSS | high polyreactivity
9 | QVHLVESGGGLVQAGGSLRLSSAASGRIFSFNAMGWYREAPGKERELVAAISWSNGSTFYADSVKGRFTISRDNAKNTVYLQMNSLKPEETAVYYCATGFPHPKRNVNRRNYWGQGTQVTVSS | high polyreactivity
10 | QVQLVESGGGLVQAGGSLRLSCAASGRIFEEYVMGWYRQAPGKERELVAAISFSGSRTYADSVKGRFTISRDNAKNTVYLQMNSLKPEDTAVYYCAADPSISYDYWGQGTQVTVSS | low polyreactivity
11 | QVQLHESGGGLVQAGRGLRLSCPASGSITSTGFMGSYRQPPGKEREPVAAIAPGTTTYYADSVKGRFTISRDNAKYTEYLQMNSLRPEDTAVYYCAVFTDNRVAFLYWGQGTQVTVSS | low polyreactivity
12 | QVPLVESGGGLVQAGGSLRLSCAASGRSFTSNAMGWYRQAPGKEREFVAAITIRGGSTYYADSVKGRFTISRDNATNTVYLQMHSLKPEDTALYYCAVGRRKTWGDYWGQGTQVTVSS | high polyreactivity
13 | QVQLVESGGGLVQAGGSLRLSSAASGLTFRYYALGWYRQAPGKERELVAAITRRGSTYYADSVKGRFTISRDNAKNTVYLQMNSLKPEDTAVYYCATVTGFHSSPLRDLDYWGQGTQVTVSS | high polyreactivity
14 | QLQLVESGGGLVQAGGSLRLSCAASGSTFVVYARGWYRQAPGKERELVAAITRDDGRTYYADSVKGRFTISRDNAKNTVYLQMNSLKPEDTAVYYCAAGYSFGYGYWGQGTQVTVSS | low polyreactivity
15 | QVQLVESRGGLVPAGGSLRLSCAASGSTVRDYTMGRYRQAPGKEREVGAAITRRSASTYYADSVKGRFTISRDNAKNTVYLQLNSLKPEDTAVYYCAVRTNGPFEYWGQGTQVTVSS | high polyreactivity
16 | QVQLVESGGGLVQAGGSLRLTCAASGNIFISYAMGWYRQAPGKEMELVAAISRSGGSTYYADSVKGRFTISRDNEKNSVYLLMNSLKPEDTAVYYCAAYIGQGRYGSWGQGTQVNVSS | high polyreactivity
17 | QVQLVDSGGRLVHAGGSLRLSCAASGRTIYRNAMGLYRQAPGKERELVAAISSDDSTNYSDSVKGRFTISRDNAKNTVYFQMNSLKPEDTAVYYCNADYYYGYDYDYWGQGSQVTVSS | low polyreactivity
18 | QVQLVESGGGLVQAGGSLRLSCAASGRTISRNAMGWYRQAPGTERELVASISRSGGSTYYADSVKGRFTISRDNAKNTVYLQMNSLKPEETAVYYCAASYWHRRYDYWGQGTQVTVSS | high polyreactivity
19 | QVQLEESGGGLVQAGGSLRLSCAASGITFFHYAMGWSRPAPGKERELVAAITWRGSSTYYADSVKGRFTMSRDNAKNTVYLQMNSLKPEDTAVYYCNAEVGYYEYDYWGQGTQVTVSS | high polyreactivity
20 | QVQLVESGGGLVQAGGSLRLSCAASGSISGWYAMGWYRQAPGKERELVADISSIAGSTYYADSVKGRFTISRDNAKNTVYLQMNSLKPEDTAVYYCAADDAAWPYSWWGFDYWGQGTQVTVSS | low polyreactivity
21 | QVQLVESGGGLVQAGGSLRLSCAASGGIFRDYAMGWSRQAPGKERELVAAISRSGDSTYYADSVKGRFTISRDNAKNTVYLQMNSLKPEDTAVYSCAADWLWAWHYYGAMDYWGQGTQVTVSS | high polyreactivity
22 | QVQLVESGGGLLQAGGTLRLSCAASGSTFSKNAMGWYRQAPGKERELVAAISSRGGNTYYADSVKGRFTISRDNAKNTVYLQMNSLKPEDTAVYYCAKALRTYQRTGWYDYWGQGTQVTVSS | high polyreactivity

Row | Sequence | polyreactivity (PSR sort gate)
23 | QVQLQLSGGDLVQAGRSLRLSCAASGTIYGLTSMGWYRQAQAKEREFVAAITDGGKTNYADSVKGRFTISRDNAKNTVYLQMIRLKPEDTAVYYCAVLFSDDAYYAYWGQGTQVTVSS | low polyreactivity
24 | QVQLVESGGGLVQAGGSLRLSCAASGRIFGRNAMGWYRQAPGKERELVAAISSGGGRTYYADSVKGRFTISRDNAKNTVYLQMNSLKPEDTSVYYCAAEDWYEYDYWGQGTQVTVSS | high polyreactivity
25 | QVQLVESWGGLVQAGGSLRLSCAASGLTFVKNAMGWYRQAPGKERELVAAITRTGGSTYYADSVKVRFTISRDNAKNTFYLQMNSLKPEDPAVYYCASRTPSPRRTKTAVDYWGQGTQVTVSS | high polyreactivity
26 | QVQLVESGGGLVQAGGSLRLSCAASGSIFVQYAMGWYRQAPGKERELVATISSSGGSTYYADSVKGRFTISRDNAKNTVYLQMNSLKPEDTAVYYCAADWTLDPSYGYYADDYWGQGTQVTVST | low polyreactivity
27 | QVQLVESGGGLVQAGGSLRLSCAASGRIFYRYAMGWYRQAPGKERELVATISSGASTNYADSVKGRFTISRDNAKNTVYVQMNSLKPEDTADYYCARLSLRYSYVSRDYWGHGTQVTVSS | low polyreactivity
28 | QVQLVESGGGLVQAGGSLRLSCAASGRTLRWYTMGGYRQAPGEERELVAAISSSGGSTYYADSVKGRFTISRDNAKNTVYLQMNSLKPEDTAVYYCARDRRLREYDYWGQGTQVTVSS | low polyreactivity
29 | QVQLVESGGGLVQAGGSLRLSCAASGSILQHYAMGWYRQAPGKERELVASISWTGGSTYYADSVKGRFTISRDNAKNTVYLQMNSLKPEDTAVYYCAARRYRYYSRGSWGQGTQVTVSS | high polyreactivity
30 | QVQLVESGGGLVQAGGSLRLSCAASGFIFRYYAMGWYRQAPGKERELVAAISWSGSRTYYADSVKGRFTISRDNAKNTVYVQMNSLKPEDTAVYYCAADGNVGVTKGRFDYWGQGTQVTVSS | high polyreactivity
31 | QVQLQVSGGHLVQAGGSLRLSCAASGTIYGLTSMGWYSQAPGKEREFVAAITDGGNTNYADSVKGRFTISRDNAKNTVYLQMISLKPEDTSVYYCAFLFSDDAYFAYWGQGTQVTLSS | low polyreactivity
32 | QVQLVESGGCLVQAGGSLRISCAASGLTFKGYTMGWYRQAPGKEREFVAAITGGVGSTYYADSVKGRFTISRDNAKNTVYVHMKSLQPEDTAVYYCNSVSYGYTDLYIFYTGYYYWGQGTQVTVSS | low polyreactivity
33 | QVQLVESGGGLVQAGGSLRLSCPASGRIFYKYAMGWYRQAPGKERELVAAISSTGGSTNYADSVKGRFTISRDNAKNSVYFQMNSLKPEDTAVYYCNAVSRYYYPYYYWGQGTQVTVSS | low polyreactivity
34 | QVQLVESGGGLVQAGGSLRLICEASGFIFDDNAIGSYRQAPGKERELVAAITSGGGSTYYADSVKGRCTISRDYAKNTVYLHMNSLKPEDTAVYYCNAVPSQHDEFDYWGQGTQVTVSS | low polyreactivity
35 | QVQLVESGGGLVQAGGSLRLSCAASGFIFGNNDRGWYRQAPGKERELVAGITWSGSSTYYADSVKGRFTISRDNAKNTVYLQMNSLKPEDTAVYYCIRVFTWRYGYRYEYWGQGTQVTVSS | high polyreactivity
36 | QVQLVESGGGLVHAGGSLRLSCAASGFIFGSYTMVWYRTAPGKERELVATITLSDGSTYYADSVNGRFTISRDNANNTVFLQMNSLKPEDTAVYYCNKDKVVVRYDYWGQGTQVTVSS | low polyreactivity
37 | QVQLVESGGGLVQAGGSLRLSCAASGRIFYRYAMGWYRQAPGKERELVAGISNSGGSTYYADSVKGRFTISRDNAKNTVYLQMNSLKPADTAVYYCATGPSYRYDIGGGRIRYYYWGQGTQVSVSS | high polyreactivity
38 | QVQLVESGGGLDQAGGSLRLSCAASASIFQRSAKCWYRQAPGKETELVAAITNGGGSTYYADSVKGRFTISRDNAMNTVYLQMNSLKPEDTAVYYCAKDGHSYYPWEYDYWVQGTQVTVSS | low polyreactivity
39 | QVQLVESGGGLVQAGGSLRLSCAASGSTFYYNAMGWYRQAPGKERELVARISRSGGSTYADSVKGRFTISRDNAKNTVYLQMNSLKPEDTAVYYCNADAYGTPEFTSYAVRYDYWGQGTQVNVSS | low polyreactivity
40 | QVQLVESGGGLVQAGGSLRLSCAASGYTFIDNAMGWYRQAPGRERELVAAISDSAGDTYYADSVKGRFTISRDNAKNTVYLQMNSLKPEDTSVYYCAARGYLRGEQLYVFIRYDYWGHGTQVTVSS | low polyreactivity
41 | QFQLLESGGGLVHAAGSLRLSSAASVSNFLSNAMGWYRQAPGKETELVAAITTSGTSTFYADSVKGRFTSSRDNAKNTVYLHINSLTPEDTEVYCAKDYLPYLHFVAPSTGDYDYWGQGTQVTVSS | low polyreactivity
42 | QVQLVESGGGLVQAGGSLRLSCAASGSTLFNYTMGWYRQAPGKESELVAAISSGGSTNYADSEKGRFTISRDNAKNTFYLQMNSLKPEDTAVYYCATDHDPWSWYRYDYWGQGTQVTVSS | low polyreactivity
43 | QVQLVESGGGLVQAGGSLRLSCAASGSTFKPYTMGWYRQAPGKERELVAGISSVDSTYYADSVKGRFTISRDNAKNTVYLQMNSLKPEDTAVYYCAADTVYIFSSAINGEFGYWGQGTQVTVSS | low polyreactivity
